Assay: yeast display, Sf9 membrane polyspecificity reagent, FACS + sequencing; frameworks hold sequencing errors
Method in brief: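 Using colony PCR, genes from sorted yeast display clones were amplified, then sequenced on MiSeq at 2 × 250 and filtered by CDR length. The clones had been stained with 10% biotinylated, detergent-solubilized Sf9 membrane reagent for 1 hour at 4 °C and sorted by FACS into low and high (top ~1%) gates on anti-HA and streptavidin fluorescence. Polyreactivity labels come from the gate of origin.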
For “QVQLVESGGGLVQAGGSLRLSCAPSGFIFEGNAMGWYRQAPGKERELVATISRSGGRTNYADSVKGRFTISRDNAKNTVYLQMNSLKPEDTAVYYCAAAYLRRVAYDYWGQGTQVTVSS”, the “polyreactivity (PSR sort gate)” value was “high polyreactivity”. For “QVQLVESGGGLVQAGGSLRLSCAPSGFIFNRNTMGWYRQAPGKERELVAAISFRGTSTYYADSVKGRFTISRDNAKNTVYLQMNSLKPEDTAVYYCNRARILVWSKYGYWGQGTQVNVSS”, the “polyreactivity (PSR sort gate)” value was “high polyreactivity”. In the case of “QVQLVESGGGLVQAGGSLRLSCAPSGFIFTLYAMGWYRQAPGKERELVASISSGGSTNYADSVKGRFTISRDNAKNTVYLQMHSLKPEATAVYYCDAYYYSKSDRFSGRYGRYYWGQVTQVTVSS”, the “polyreactivity (PSR sort gate)” value is reported as “high polyreactivity”. For “QVQLVESGGGLVQAGGSLRLSCAPSGFIFWRNAMGWYRQAPGKEREFVAAITSSGGRTYYADSVKGRFTISRDNAKNTVYLQMNSLKPEDTAVYYCAAEIRDYAKSYSFYWGQGTQVTVSS”, the “polyreactivity (PSR sort gate)” value was “high polyreactivity”. In the case of “QVQLVESGGGLVQAGGSLRLSCAPSGFTFRGNAMGWYRQAPGKERELVATISRGGNTNYADSVKGRCTISRDNAKNTVYLQMNSLKPEDTAVYYCAAVSFIRSKVAYNYWGQGTQVTVSS”, the “polyreactivity (PSR sort gate)” value is reported as “low polyreactivity”. For “QVQLVESGGGLVQAGGSLRLSCAPSGFTFRRNAMGWYRQAPGKERELVAVITSSARTNYADSVKGRFTISRDNAKKTVYLEMNSLKPEDTAVYYCAARYHYGVWRERHGYWGQGTKVTVSS”, the “polyreactivity (PSR sort gate)” value was “high polyreactivity”. With “QVQLVESGGGLVQAGGSLRLSCAPSGFTFSYNAMGWYRQAPGKERELVAAISNSGGSTYYADSVKGRFTISRDNAKYTVYLQMNSLKPEDTAVYYCAADVAQVGYQVGVSEIYPGYEYWGQGTQVTVSS” the “polyreactivity (PSR sort gate)” value was “low polyreactivity”. For “QVQLVESGGGLVQAGGSLRLSCAPSGGTFPFNAMGWYRQAPGKERELVAAISGRSGRTYYADSVKGRFTISRDNAKNTVDLQMNRLKPEDTAVYYCAARRWRPYDYWGQGTQVTVSS”, the “polyreactivity (PSR sort gate)” value was “high polyreactivity”. In the case of “QVQLVESGGGLVQAGGSLRLSCAPSGIIFLGYMGWYRQAPGKEREFVADITFSVDGTYYADSVKGRFTISRDNAKNTVYLQMNSLKPEDNAVYYCAAVSDLQAGTMEYWGQGTEVTVSS”, the “polyreactivity (PSR sort gate)” value is reported as “high polyreactivity”. With “QVQLVESGGGLVQAGGSLRLSCAPSGIIFRGNAMGWYRQAPGKEREFVAAISLRGSRTYYADSVKGRFTISRDNAKNTVYLQMNSLKQEDTAVYYCAATRPYRYNYWGQGTQVTVSS” the “polyreactivity (PSR sort gate)” value was “high polyreactivity”. For “QVQLVESGGGLVQAGGSLRLSCAPSGIIFSPNAMGLYRQAPGKERELVASISSDSSTNYADSVKGRFSISRDNAKNTVYLQMNSLKPEYTAVYYCAADFVVGQAGDWTFWFDYWGQGTQVTVSS”, the “polyreactivity (PSR sort gate)” value was “low polyreactivity”. In the case of “QVQLVESGGGLVQAGGSLRLSCAPSGIIFYGNAMGWYRPAPGKERELVAAITRSGVRTYYADSVKGRFTISRDNAKKTGYLQMNSLNPEDSAVSYCAAVKPVSSRHYPYDYWGQGTQVTVSS”, the “polyreactivity (PSR sort gate)” value is reported as “high polyreactivity”. With “QVQLVESGGGLVQAGGSLRLSCAPSGITFRSYAMGWYRQAPGKERELVATISWSGGITYYADSVKGRFTISRDNAKNTVYLQMNSLKPEDTAVYYCATASQSWGRDDYYYWGQGTQVTVSS” the “polyreactivity (PSR sort gate)” value was “low polyreactivity”. For “QVQLVESGGGLVQAGGSLRLSCAPSGITFWYYAMGWYRQAPGKERELVAAINKSGGRTYYADSVKGRFTISRDNAKNTVYLQMNSLKPEDTAVYYCAAPRSRSRTSRFDYWGQGTQVTVSS”, the “polyreactivity (PSR sort gate)” value was “high polyreactivity”. In the case of “QVQLVESGGGLVQAGGSLRLSCAPSGITLDSNAMGWYRQARGKERELVAAINWSTGSTYYADSVKGRFTISRDNAKNTVYLQMNSLKPEDTAVYYCAVDYRYGYFVYVHYEYWGQGTQETVSS”, the “polyreactivity (PSR sort gate)” value is reported as “high polyreactivity”. With “QVQLVESGGGLVQAGGSLRLSCAPSGLIFDANAMGWYRQAPGKERELVAAISNGDSTYYADSVKGRFTISRDNAKNTLYLQMNSLKPEDTAVYYCNARIIYRKWLLRSGTFNYWGQGTQVTVSS” the “polyreactivity (PSR sort gate)” value was “low polyreactivity”. For “QVQLVESGGGLVQAGGSLRLSCAPSGLIFKKYTMGGYRQSPGKERELVASISKSGGSTYYADSVKGRFTFSRDNAKNTYYLQMNCLKPEDTAVYYCNRVSHYIRFDYWVQGTQVTVSS”, the “polyreactivity (PSR sort gate)” value was “low polyreactivity”. With “QVQLVESGGGLVQAGGSLRLSCAPSGNTFFLNAMGWYRQAPGKERELVAAITSSGGSTYYADSVKGRFTISRDNAKNTVYLQMNSLKPEDTAVYYCGTDRSYPPRSLNRRGPYEYWGQGTQVTVSS” the “polyreactivity (PSR sort gate)” value was “low polyreactivity”. In the case of “QVQLVESGGGLVQAGGSLRLSCAPSGRTFCPYAMGWYRKAPGKERELVAAISSSGSTTYYADSVKGRFTISRDNAKNTVYLQMNSLKPEDNAVYYCAAVYLRGDGEYDYWGQVTQVTVSS”, the “polyreactivity (PSR sort gate)” value is reported as “low polyreactivity”. In the case of “QVQLVESGGGLVQAGGSLRLSCAPSGRTFRFYVMGWYRQAPGKERELVAAISRGGGSTYYADSVKGRFTISRDNAKNTVYLQMNSLKPEDTAVYYCAAKPYKTRSSYWGDYYWGQGTQVTVSS”, the “polyreactivity (PSR sort gate)” value is reported as “high polyreactivity”. In the case of “QVQLVESGGGLVQAGGSLRLSCAPSGRTFRYYAMGWYRQAPGKERELVAAINWSGGSTYYADSVKGRFSISRDNAKNAVYLQKNSLKPEDTAVYYCAADEKMYITGYDYWGQGTQVTVSS”, the “polyreactivity (PSR sort gate)” value is reported as “low polyreactivity”. For “QVQLVESGGGLVQAGGSLRLSCAPSGRTFVYYAMGWYRQAPGKERELVASISSGGGSTNYADSVKGRFTISRDNAKNTVYLQMNSLKPEDTAVYYCAVDTPRYRYYRTSYDYWGQGTQGTVSS”, the “polyreactivity (PSR sort gate)” value was “low polyreactivity”. With “QVQLVESGGGLVQAGGSLRLSCAPSGSIFDSNAMGWYRQAPGKERELVAAISSSGARTYYADSVKGRFTISRDNAKNTVYLQMNSLKPEDTAVYYCAARYAGGYYYWGQGTQVTVSS” the “polyreactivity (PSR sort gate)” value was “high polyreactivity”. For “QVQLVESGGGLVQAGGSLRLSCAPSGSIFPSNVMGWYRQAPGKERELVAAISNTGSTNYADSVKGRFTISRDNAKNTVYLQMNSLKPEDTAVYYCNGDASYGFWSLLDYDYWGQATQVTVSS”, the “polyreactivity (PSR sort gate)” value was “low polyreactivity”. For “QVQLVESGGGLVQAGGSLRLSCAPSGSIFQSYAMGWYRQAPGKEREMVAAITRSGGRTYYADSVKGRFTISRDNAKNTVYLQMNSLKPEDTAVYYCAAFGWGYGYWGQGTQVTVSS”, the “polyreactivity (PSR sort gate)” value was “high polyreactivity”. For “QVQLVESGGGLVQAGGSLRLSCAPSGSIFRKYAMGRYRQAPGKERELVAAIRSSGGSTYYADSVKGRFTISRDKAKNSVYFQLNSLKPEDTAVYYCAARYYRPSRYDYWGQGTQVTVSS”, the “polyreactivity (PSR sort gate)” value was “high polyreactivity”. With “QVQLVESGGGLVQAGGSLRLSCAPSGSIFSYYDIGWYIQAPGKERELVAAISWDGGDRTYADSVKGRFTISRDNAKNTVYLQMTSLKPEDTAVYYFAAGWDASYGYDYWGQGTQLTVSS” the “polyreactivity (PSR sort gate)” value was “low polyreactivity”. In the case of “QVQLVESGGGLVQAGGSLRLSCAPSGSIFVYYGMGWYRQAPRKERELVAAISSGGSTHYADSVKGRFTISRDNAKITVYLQMNSLKPEDTAVYYCAADRFFWLRSYPRYYYWGQGTQVTVSS”, the “polyreactivity (PSR sort gate)” value is reported as “low polyreactivity”. With “QVQLVESGGGLVQAGGSLRLSCAPSGSIFYVNAMGWYRQAPGKERELVAAITYDTGRTYYADSVKGRFTISRDNAKNTVYLQKNSLKPEDTAVYYCAVRPGYYWGYWPRFGYWGQGTQVTVSS” the “polyreactivity (PSR sort gate)” value was “low polyreactivity”. For “QVQLVESGGGLVQAGGSLRLSCAPSGSTFGFYAMGWYIQAPGKERELVAAISRGGSTNYADSVKGRFTISRDNAKNTVYLQMNSLKPEDTAVYYCAKAYHATSDYWGQGTQVTVSS”, the “polyreactivity (PSR sort gate)” value was “low polyreactivity”. With “QVQLVESGGGLVQAGGSLRLSCAPSGSTFTYNAMGWYRQAPGKERELVASISSGTTTYYADSVKGRFTISRDNAKNTVYLQMNSLKPEDTAVYYCAVDSWSRVQGWLAHNYDYWGQGTQVTVSS” the “polyreactivity (PSR sort gate)” value was “low polyreactivity”.

Source: the nanobody polyreactivity screen of Harvey et al. (2022)
